{"source": "paper PMC5758902", "binders": {"B1": {"name": "31mer G:T heteroduplex (dsDNA)", "DNA 1": "GCGATGTTGCTGACGCTGGTGCCTGGCAGCT", "DNA 2": "AGCTGCCAGGCACCAGTGTCAGCAACATCGC"}, "B2": {"name": "30mer G:T heteroduplex (dsDNA)", "DNA 1": "AGCTGCCAGGCACCAGTGTCAGCGTCCTAT", "DNA 2": "ATAGGACGCTGACACTGGTGCTTGGCAGCT"}, "B3": {"name": "30mer homoduplex (dsDNA)", "DNA 1": "B2 DNA 1", "DNA 2": "B2 DNA 2 with T22C"}}, "key": {"NgoS E687A": {"target": "T1, NgoS E687A (Neisseria gonorrhoeae, UniProt Q5F5J4 1-814, E687A)", "T1 sequence": "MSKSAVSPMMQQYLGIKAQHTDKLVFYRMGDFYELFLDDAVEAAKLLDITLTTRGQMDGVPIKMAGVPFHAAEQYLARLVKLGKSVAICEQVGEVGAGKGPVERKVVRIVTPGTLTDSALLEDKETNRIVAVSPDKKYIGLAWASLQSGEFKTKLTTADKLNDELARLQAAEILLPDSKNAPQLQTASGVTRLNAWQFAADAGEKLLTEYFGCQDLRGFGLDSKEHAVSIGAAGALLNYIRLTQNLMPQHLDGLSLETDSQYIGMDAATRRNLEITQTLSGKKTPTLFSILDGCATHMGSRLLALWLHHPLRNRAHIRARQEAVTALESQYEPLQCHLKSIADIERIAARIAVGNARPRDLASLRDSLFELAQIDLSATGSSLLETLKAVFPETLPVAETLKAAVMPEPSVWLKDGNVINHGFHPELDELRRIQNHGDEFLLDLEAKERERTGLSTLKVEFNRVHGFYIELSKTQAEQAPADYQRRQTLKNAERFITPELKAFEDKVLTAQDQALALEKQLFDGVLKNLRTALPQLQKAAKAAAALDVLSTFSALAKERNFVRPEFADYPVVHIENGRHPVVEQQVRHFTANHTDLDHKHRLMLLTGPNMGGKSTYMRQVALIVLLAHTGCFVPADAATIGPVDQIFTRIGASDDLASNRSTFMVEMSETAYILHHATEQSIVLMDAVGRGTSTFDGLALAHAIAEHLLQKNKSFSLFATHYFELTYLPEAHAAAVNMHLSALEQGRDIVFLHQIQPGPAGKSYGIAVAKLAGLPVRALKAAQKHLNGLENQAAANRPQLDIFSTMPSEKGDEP", "test": "fluorescence anisotropy"}, "NgoS (MutS) [1]": {"target": "T2, NgoS (MutS) (Neisseria gonorrhoeae, UniProt Q5F5J4 1-814)", "T2 sequence": "T1 sequence with A687E", "test": "fluorescence anisotropy"}, "NgoS (MutS) [2]": {"target": "T2, NgoS (MutS)", "test": "DLS"}}, "note": "Changes are numbered by the printed parent chain."}
{"binder": "B1", "values": [{"measurement": "binding result", "setting": "NgoS E687A", "value": "binds"}, {"measurement": "binding result", "setting": "NgoS (MutS) [1]", "value": "binds"}]}
{"binder": "B2", "values": [{"measurement": "binding result", "setting": "NgoS (MutS) [2]", "value": "binds"}]}
{"binder": "B3", "values": [{"measurement": "binding result", "setting": "NgoS (MutS) [2]", "value": "binds"}]}
